The source of these data is IntAct's records for PubMed 22975076.

For the assay, the target named is tif1b_human TRIM28 (UniProt Q13263).
Chain of tif1b_human TRIM28 (Q13263 whole entry): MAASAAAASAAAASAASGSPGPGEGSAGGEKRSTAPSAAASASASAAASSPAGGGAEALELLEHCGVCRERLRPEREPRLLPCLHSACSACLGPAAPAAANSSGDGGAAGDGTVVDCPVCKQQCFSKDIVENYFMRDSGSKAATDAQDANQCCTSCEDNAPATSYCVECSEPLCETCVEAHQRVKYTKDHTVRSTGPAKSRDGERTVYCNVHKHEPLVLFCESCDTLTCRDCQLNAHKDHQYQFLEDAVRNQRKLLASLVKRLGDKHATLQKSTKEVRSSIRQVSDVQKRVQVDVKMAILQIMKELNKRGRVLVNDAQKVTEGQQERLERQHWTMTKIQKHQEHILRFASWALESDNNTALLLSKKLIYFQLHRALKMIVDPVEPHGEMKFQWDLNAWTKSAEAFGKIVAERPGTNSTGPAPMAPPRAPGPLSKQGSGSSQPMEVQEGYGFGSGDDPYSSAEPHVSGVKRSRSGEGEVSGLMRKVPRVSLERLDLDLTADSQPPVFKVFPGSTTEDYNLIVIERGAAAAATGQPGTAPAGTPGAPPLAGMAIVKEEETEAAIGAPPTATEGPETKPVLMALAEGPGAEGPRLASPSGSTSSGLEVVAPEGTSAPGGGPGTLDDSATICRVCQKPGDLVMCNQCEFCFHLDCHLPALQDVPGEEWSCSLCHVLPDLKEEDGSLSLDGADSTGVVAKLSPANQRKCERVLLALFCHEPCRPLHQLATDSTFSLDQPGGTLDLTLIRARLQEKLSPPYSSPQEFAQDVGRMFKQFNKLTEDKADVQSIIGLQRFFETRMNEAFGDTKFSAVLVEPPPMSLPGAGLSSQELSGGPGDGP

For the substance “Zinc finger protein 350 (Homo sapiens), Q9GZX5 V13A”, the “effect of a mutation on the interaction” value was “decreasing interaction”.
In the case of “Zinc finger protein 350 (Homo sapiens), Q9GZX5 D12A” it was “decreasing interaction”.
